In this data set the test system is MS2 coat protein. Briefly: apparent KD of MS2 coat protein; designed switch direction (-1 OFF switch, 1 ON switch): -1; higher = weaker reporter binding. The essentials: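 Designed RNA switches sharing common flanks were transcribed on Illumina chips by stalled E. coli RNA polymerase. They were titrated with SNAP-549-labelled MS2 coat protein, from 0.7 or 1.5 nM doubling to 3 µM, in Tris-HCl pH 7.5 buffer with KCl, MgCl2, BSA, DTT, tRNA and Tween-20. Titrations ran without input, with 200 uM small-molecule ligand, or with an oligonucleotide input. The apparent KD of each design is the median over its clusters, after curve-fitting of normalised cluster fluorescence.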

The mark [1] stands for this setting: input ligand: microRNA oligo, concentration not stated.
Setting [2] is: Eterna round: R95, input ligand: microRNA oligo, concentration not stated.
Setting [3] is: Eterna round: R95, input ligand: FMN 200 uM.
Setting [4] is: Eterna round: R95, input ligand: none.

Consider “CUCGUGCAGCAAAGCUGUACGAGUACAUGAGGAUCACCCAUGUAGGAUAUGGUACGCAAAGCGUGCUAGAAGGAUAUGUGUAGG [Mat - Exclusion NG 3 - Mod of JL - D87] (Eterna round: R96, puzzle: Exclusion NG 3)”, for which the “apparent KD of MS2 coat protein” value came to 61.5 nM (input ligand: FMN 200 uM), 32.7 nM under setting [1] and 50.5 nM (input ligand: none).

On to “GAAAACGCAGAGGAUAUUUCAGAUCAAAGCUGCAAAGAAGGCUGCACAUGAGGAUCACCCAUGUGGUCUUUAAA [Mod of Quesina - Jieux - Exclusion 6] (Eterna round: R97, puzzle: Exclusion 6)”, for which the “apparent KD of MS2 coat protein” value (input ligand: FMN 200 uM) is 286 nM and the “apparent KD of MS2 coat protein” value (input ligand: none) came to 20.7 nM.

Regarding “UAUCGCAAGCGAAGAUCCCACAUGAGGAUCACCCAUGUGCUCGUCUUAUAAGGUACUGUGACGAUAGUCACGGUACC [Mat - Sensor, turn-off var - Eli Mod - D77] (Eterna round: R97, puzzle: Sensor, turn-off variant 1)”, the “apparent KD of MS2 coat protein” value reads like this: (input ligand: FMN 200 uM) 33.6 nM; (input ligand: none) 24.9 nM.

In the case of “AGCGAGACAGGAUAUACUUGAGGAUCACCCAAGUCACAAAGGGUCUCACUCUUCACUAGUAGAAGGGUCGUGUA [Lereer] (Eterna round: R97, puzzle: Exclusion 3)”, the “apparent KD of MS2 coat protein” value amounted to 24.1 nM (input ligand: FMN 200 uM) and 18.7 nM (input ligand: none).

With “UGUUGUUGAUAGGAUAUACUUGUAGGAGUUGUAGUAGAAGGAUCUACAUGAGGAUCACCCAUGUAGGAGUGAGU [JR_E6_Sub004] (puzzle: Exclusion 6)”, under setting [2], the “apparent KD of MS2 coat protein” value came to 15.6 nM.

Take “ACAUGUAAUGUAGGAUAUUUUACACAUGAGGAUCACCCAUGUGACCAGAGGCAUUGCUAUGAGUAAAAGAAGGGUAUGUACAUG [Ex NG2 #58] (Eterna round: R96, puzzle: Exclusion NG 2)”: the “apparent KD of MS2 coat protein” value (input ligand: FMN 200 uM) amounted to 47 nM, the “apparent KD of MS2 coat protein” value under setting [1] was 27.8 nM and the “apparent KD of MS2 coat protein” value (input ligand: none) was 42.3 nM.

For “UUUUAGAGAGGAUAUAUAUUGUGAAACAUGAGGAUCACCCAUGUAAUAAUAUGGAUGAAAAUAGAAGGCUCAUUUA [Mat - Exclusion 5 - JL mod - D7] (puzzle: Exclusion 5)”, the “apparent KD of MS2 coat protein” value reads like this: under setting [3], 52.1 nM; under setting [2], 62.7 nM; under setting [4], 73.6 nM.

Consider “ACAUGUAUUGCAGGAUAUGGGACACAUGAGGAUCACCCAUGUGACUACAUGUCAUACCACGCGUCUCAGAAGGGUAUGUACAUG [Ex NG2 #39] (Eterna round: R96, puzzle: Exclusion NG 2)”, for which the “apparent KD of MS2 coat protein” value was found to be 27.7 nM (input ligand: FMN 200 uM), 14 nM under setting [1] and 21.5 nM (input ligand: none).

Turning to “CUUCGUAUAGAGGAUAUAGGAUACUUCGGUGUCCUAGAAGGCUGUACAUGAGGAUCACCCAUGUACUUCAGAUC [Exclusion 6 - B - 14:b] (puzzle: Exclusion 6)”, the “apparent KD of MS2 coat protein” value under setting [2] came out at 11.9 nM.

As to “CCAAUGUAAGGAUAUCGUGCAAGUUUCAAAAGAGGCUUGUGCGAGAAGGUACAUGAGGAUCACCCAUGUAGGUU [Omei Ex4 B2] (Eterna round: R97, puzzle: Exclusion 4)”, the “apparent KD of MS2 coat protein” value was determined as 340 nM (input ligand: FMN 200 uM) and 78.4 nM (input ligand: none).

“AGUACUAACACGCCAGUGUUAGUACAAUAAGCUUGUGAAACAUGAGGAUCACCCAUGUCCUCAUAAGCUCGUCUUAU [salish99_TOv2_r3_028] (puzzle: Sensor v3, turn-off variant 2)”: the “apparent KD of MS2 coat protein” value under setting [3] is 16.9 nM, the “apparent KD of MS2 coat protein” value under setting [2] was determined as 677 nM and the “apparent KD of MS2 coat protein” value under setting [4] is 15.1 nM.

In the case of “AUAAGCUUUUAAAUCCUUAACAUGAGGAUCACCCAUGUUCGUCUUAUGAUGGUCUGAUCCCUGAGGAUCGGACCGUU [JL-sv1-2.03 Brourd Mod] (puzzle: Sensor v3, turn-off variant 1)”, the “apparent KD of MS2 coat protein” value reads like this: under setting [3], 29.2 nM; under setting [2], 95 nM; under setting [4], 30.9 nM.

The values above are taken from the supplement of paper PMC9170038.
